From patent publication US20140377262A1

Assays:
[1] = molecular target: HA protein of B/Shanghai/361/2002 (influenza B virus B/Shanghai/361/2002); assay: cell-based or functional assay
[2] = molecular target: HA protein of B/Shandong/7/1997 (influenza B virus B/Shandong/7/1997); assay: cell-based or functional assay
[3] = molecular target: HA protein of B/Florida/4/2006 (influenza B virus B/Florida/4/2006); assay: cell-based or functional assay
[4] = molecular target: HA protein of B/Yamanashi/166/1998 (influenza B virus B/Yamanashi/166/1998); assay: cell-based or functional assay
[5] = molecular target: HA protein of B/Malaysia/2506/2004 (influenza B virus B/Malaysia/2506/2004); assay: cell-based or functional assay
[6] = molecular target: HA protein of B/Mie/1/1993 (influenza B virus B/Mie/1/1993); assay: cell-based or functional assay
[7] = molecular target: HA protein of B/Victoria/2/1987 (influenza B virus B/Victoria/2/1987); assay: cell-based or functional assay
[8] = molecular target: HA protein of B/Johannesburg/5/1999 (influenza B virus B/Johannesburg/5/1999); assay: cell-based or functional assay
[9] = molecular target: HA protein of B/Florida/4/2006 (vaccine antigen) (influenza B virus B/Florida/4/2006)

B1: HuMAb 5A7 (human monoclonal antibody from hybridoma) (antibody, V domains shown)
VH: QVQLVESGGDVVQPGRSLRLSCAASGFTFNNYGMHWVRQAPGKGLEWVAVVWYDGLIKYYADSVKGRFTISRDNSKNTLYLQMNTLRAEDMGVYYCARDLQPPHSPYGMDVWGQGTTVTVSS
VL: QSVLTQPPSASGTPGQRVTISCSGSSSNIGSNDVYWYQNLPGTAPKLLIYNNNQRPSGVPDRFSGSKSGTSASLAISGLRSEDEADYYCAAWDDSLTVSFGTGTKVTVL
[1]
  VN50: 6.25 µg/mL
[2]
  VN50: 25 µg/mL
[3]
  Fusion inhibition: 100 µg/mL
  HI: 25 µg/mL
  VN50: 6.25 µg/mL
[4]
  VN50: 6.25 µg/mL
[5]
  VN50: 6.25 µg/mL
[6]
  VN50: 6.25 µg/mL
[7]
  VN50: 25 µg/mL
[8]
  VN50: 6.25 µg/mL
[9]
  Kd: < 5.6 nM
